Measurements taken from PMC11170971 (2024).

How the values were obtained:
[1] = molecular target: hTLR2 extracellular domain, purified recombinant (human, UniProt O60603 21-588); test: MST
[2] = molecular target: T1, zTLR4ba extracellular domain, purified recombinant (zebrafish); test: MST
T1 chain: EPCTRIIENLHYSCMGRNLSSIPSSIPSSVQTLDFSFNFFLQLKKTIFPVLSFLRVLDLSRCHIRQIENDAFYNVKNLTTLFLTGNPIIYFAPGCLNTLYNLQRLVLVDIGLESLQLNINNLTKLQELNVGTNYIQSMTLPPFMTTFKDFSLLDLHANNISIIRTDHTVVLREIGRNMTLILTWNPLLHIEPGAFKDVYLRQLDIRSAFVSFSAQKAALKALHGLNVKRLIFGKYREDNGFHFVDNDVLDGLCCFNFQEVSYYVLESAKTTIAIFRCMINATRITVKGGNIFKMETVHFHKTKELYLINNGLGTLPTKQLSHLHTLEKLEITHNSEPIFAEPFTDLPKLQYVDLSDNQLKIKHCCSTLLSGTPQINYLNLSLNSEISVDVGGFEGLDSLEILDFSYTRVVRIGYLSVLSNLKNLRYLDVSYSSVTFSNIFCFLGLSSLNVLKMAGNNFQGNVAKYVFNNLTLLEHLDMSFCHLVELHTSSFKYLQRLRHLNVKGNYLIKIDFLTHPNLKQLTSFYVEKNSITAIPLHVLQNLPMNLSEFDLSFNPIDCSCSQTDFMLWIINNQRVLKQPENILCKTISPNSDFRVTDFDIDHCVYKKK

Sequence of hTLR2 extracellular domain, purified recombinant (O60603 21-588): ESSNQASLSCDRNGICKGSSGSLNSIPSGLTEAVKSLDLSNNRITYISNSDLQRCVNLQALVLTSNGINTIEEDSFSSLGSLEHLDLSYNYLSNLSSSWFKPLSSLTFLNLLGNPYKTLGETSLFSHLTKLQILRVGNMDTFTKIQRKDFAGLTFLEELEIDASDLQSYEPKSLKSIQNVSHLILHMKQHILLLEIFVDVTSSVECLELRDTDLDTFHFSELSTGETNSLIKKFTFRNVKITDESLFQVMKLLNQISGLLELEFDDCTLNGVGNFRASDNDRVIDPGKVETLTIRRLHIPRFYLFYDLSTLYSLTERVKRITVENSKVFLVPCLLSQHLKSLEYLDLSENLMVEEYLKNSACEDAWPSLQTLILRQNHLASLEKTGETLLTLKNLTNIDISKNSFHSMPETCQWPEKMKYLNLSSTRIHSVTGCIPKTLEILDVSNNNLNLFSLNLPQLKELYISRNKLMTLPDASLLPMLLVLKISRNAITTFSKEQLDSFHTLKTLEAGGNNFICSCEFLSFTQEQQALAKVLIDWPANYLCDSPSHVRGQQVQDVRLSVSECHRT

B1: recombinant His-tagged SpaC protein (SpaC pilin subunit of Lactobacillus rhamnosus GG) (natural protein)
chain: MTAKVARTGHLFAVLLILMSMLTGLVTSGSSVVTATDNIRPTYQTDANGTYPTNSWQVTGQQNVINQRGGDQVSGWDNNTIWNGDATDTTNSYLKFGDPNNPDYQIRKYAKETNTPGLYDVYLNVKGNKQQNVKPVDIVLVVDMSGSMESNRWGTNRAGAVRTGVKNFLTSIQNAGLGNYVNVGLIGFSSPGYIGGKSGYISVKLGKAGNASQQQAINGALSPRFQGGTYTQIGLRQGSAMLNADTSGNKKMMILLTDGVPTFSNEVINSEWINGTLYGTNFGSSRDEPGNTARLRWPYTDSSGHYIYDTWPATLGEAKIAKDSGNEVHALGIQLADDDHYMTKEKIRQNMQLITNSPDLYEDADSADAVEAYLNNQAKDIIKNFNTVTDGTITDPIGTQFQYANNQATVTSVGKQTVPASELPSAAIQDGQLTVNHMNLGQDQEVQIHYQVRIKTEDAGFKPDFWYQMNGETLLTPKAGAAAVDFGIPSGRAPATTVYVQKQWRQLSNQSLPDTLNVTVQRKVADGSLDPNWQQTLVLKKADNWKASFTAPAYNNQGQSFSYVVKSEDASGIDLSSFISSQNMDQQTATLTLTNQQYGFQFQKKTTDGTDLSADQLKAMQFNLTQYSDNSFQQASKTNAITSTDLQALAPGYYGIQEAAAPTGYQLDGTTYLFQLTSDGQWQYHGTKDNVTSGSVINGQQTLNPVGDKSDDFTVTGDHQQILTLTKYDEPKPSMTLRVIKQDNQSQYLAGAAFTLQPSAGEAETITSSATSEGQAFATKLVADGTYTMSETKAPDGYQSNPAKIAIQVATTGKEATVTIDGEALKPGESKNGYTLAIDGSTITLQAINQPLAILPHTGGQGYQRLLGIALGLISAAFLLLLVVLIKRRVVKQHD
modifications: labelled with Monolith Protein Labeling Kit Red-NHS (in the MST only)
B1 gave a Kd [1] of 0.19 µM and a Kd [2] of 2.98 µM.
